Results on seven molecules are retold here after publication PMC3505452 (Science (New York, N.Y.), 2012).

One data set concerns the target UVR8^R146A (Arabidopsis) (UniProt Q9FN03). The data set is described as follows: SEC.
Another data set addresses UVR8^R286A (Arabidopsis) (UniProt Q9FN03). The data set is described as follows: SEC. In general terms: In gel filtration, larger molecules generally elute earlier.
The target in data set [1] is T1, UVR8 (UV … LOCUS 8), recombinant Arabidopsis, full-length wild type (Arabidopsis), Q9FN03.
T1 chain: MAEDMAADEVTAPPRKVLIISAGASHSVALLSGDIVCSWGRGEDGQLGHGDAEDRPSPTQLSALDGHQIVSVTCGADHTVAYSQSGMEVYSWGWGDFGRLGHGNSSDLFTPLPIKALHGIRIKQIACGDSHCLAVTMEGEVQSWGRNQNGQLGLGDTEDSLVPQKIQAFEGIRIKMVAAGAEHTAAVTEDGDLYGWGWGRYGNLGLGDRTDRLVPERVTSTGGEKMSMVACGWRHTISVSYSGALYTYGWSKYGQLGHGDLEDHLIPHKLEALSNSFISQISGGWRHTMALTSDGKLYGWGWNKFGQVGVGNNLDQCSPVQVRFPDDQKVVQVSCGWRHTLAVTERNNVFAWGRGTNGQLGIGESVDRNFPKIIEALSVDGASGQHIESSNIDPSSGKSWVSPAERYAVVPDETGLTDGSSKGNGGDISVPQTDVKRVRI
As to the kind of experiment: SEC. The note with it: remark: other sources report otherwise.

In data set [2] the target is T1, UVR8 (UV … LOCUS 8), recombinant …. The data set is described as follows: SEC-MALS. The note with it: remark: other sources report otherwise.
The target is the same in data set [3]. The data set is described as follows: SDS-PAGE without sample boiling. The note with it: remark: other sources report otherwise.
The target is the same in data set [4]. The data set is described as follows: SAXS. The following applies: remark: other sources report otherwise.
For data set [5], the target named is T2, UVR8^W285A (Arabidopsis), Q9FN03.
T2 chain: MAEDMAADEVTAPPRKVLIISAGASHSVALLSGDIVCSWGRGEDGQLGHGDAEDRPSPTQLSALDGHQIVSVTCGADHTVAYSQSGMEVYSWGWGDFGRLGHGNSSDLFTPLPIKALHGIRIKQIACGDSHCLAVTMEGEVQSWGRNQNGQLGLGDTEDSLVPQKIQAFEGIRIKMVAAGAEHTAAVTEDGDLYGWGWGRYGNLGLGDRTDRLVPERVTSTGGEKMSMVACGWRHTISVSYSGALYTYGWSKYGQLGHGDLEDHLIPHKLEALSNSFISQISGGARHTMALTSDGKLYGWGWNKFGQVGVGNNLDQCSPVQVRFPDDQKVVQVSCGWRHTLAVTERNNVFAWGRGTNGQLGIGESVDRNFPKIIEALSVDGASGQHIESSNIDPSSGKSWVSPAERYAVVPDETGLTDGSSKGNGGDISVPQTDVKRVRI
As to the kind of experiment: SAXS. The note with it: remark: other sources report otherwise.

The data set “SEC” deals with the molecule itself. As to the kind of experiment: SEC.
The target in data set [6] is T3, UVR8^W233F (Arabidopsis), Q9FN03.
T3 chain: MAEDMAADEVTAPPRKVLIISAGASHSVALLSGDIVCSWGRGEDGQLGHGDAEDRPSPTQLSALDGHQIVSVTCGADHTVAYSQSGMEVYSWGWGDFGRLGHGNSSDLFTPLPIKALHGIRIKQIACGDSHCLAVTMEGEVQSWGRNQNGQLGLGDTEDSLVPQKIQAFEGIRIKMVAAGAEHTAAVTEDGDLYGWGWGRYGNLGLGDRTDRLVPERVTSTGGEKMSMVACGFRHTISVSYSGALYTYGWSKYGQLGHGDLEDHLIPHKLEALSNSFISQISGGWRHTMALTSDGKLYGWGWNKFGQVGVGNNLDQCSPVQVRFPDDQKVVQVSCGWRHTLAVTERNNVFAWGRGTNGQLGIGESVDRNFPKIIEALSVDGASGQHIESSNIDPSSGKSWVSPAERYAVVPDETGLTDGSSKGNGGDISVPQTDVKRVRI
As to the kind of experiment: SEC. The note with it: remark: other sources report otherwise.

The target is the same in data set [7]. The data set is described as follows: SEC. The note with it: remark: other sources report otherwise.
The data set “SAXS” concerns the molecule itself. As to the kind of experiment: SAXS.

As to “UVR8^R146A (from UniProt Q9FN03 1-440) (natural protein)”, the stoichiometry N (commonly the number of molecules, sites or subunits per partner or assembly) in the data set with UVR8^R146A (Arabidopsis) was found to be 2.

In the data set with UVR8^R286A (Arabidopsis), “UVR8^R286A (from UniProt Q9FN03 1-440) (natural protein)” had a stoichiometry N of 2.

B1: UVR8 (UV … LOCUS 8), recombinant Arabidopsis, full-length wild type, Q9FN03 1-440 (natural protein)
chain: MAEDMAADEVTAPPRKVLIISAGASHSVALLSGDIVCSWGRGEDGQLGHGDAEDRPSPTQLSALDGHQIVSVTCGADHTVAYSQSGMEVYSWGWGDFGRLGHGNSSDLFTPLPIKALHGIRIKQIACGDSHCLAVTMEGEVQSWGRNQNGQLGLGDTEDSLVPQKIQAFEGIRIKMVAAGAEHTAAVTEDGDLYGWGWGRYGNLGLGDRTDRLVPERVTSTGGEKMSMVACGWRHTISVSYSGALYTYGWSKYGQLGHGDLEDHLIPHKLEALSNSFISQISGGWRHTMALTSDGKLYGWGWNKFGQVGVGNNLDQCSPVQVRFPDDQKVVQVSCGWRHTLAVTERNNVFAWGRGTNGQLGIGESVDRNFPKIIEALSVDGASGQHIESSNIDPSSGKSWVSPAERYAVVPDETGLTDGSSKGNGGDISVPQTDVKRVRI
Take B1: the stoichiometry N in [1], in data set [2], in data set [3] and in [4] was 2 each time.

B2: UVR8^W285A, Q9FN03 1-440 (natural protein)
chain: MAEDMAADEVTAPPRKVLIISAGASHSVALLSGDIVCSWGRGEDGQLGHGDAEDRPSPTQLSALDGHQIVSVTCGADHTVAYSQSGMEVYSWGWGDFGRLGHGNSSDLFTPLPIKALHGIRIKQIACGDSHCLAVTMEGEVQSWGRNQNGQLGLGDTEDSLVPQKIQAFEGIRIKMVAAGAEHTAAVTEDGDLYGWGWGRYGNLGLGDRTDRLVPERVTSTGGEKMSMVACGWRHTISVSYSGALYTYGWSKYGQLGHGDLEDHLIPHKLEALSNSFISQISGGARHTMALTSDGKLYGWGWNKFGQVGVGNNLDQCSPVQVRFPDDQKVVQVSCGWRHTLAVTERNNVFAWGRGTNGQLGIGESVDRNFPKIIEALSVDGASGQHIESSNIDPSSGKSWVSPAERYAVVPDETGLTDGSSKGNGGDISVPQTDVKRVRI
B2 registered a stoichiometry N in data set [5] of 2.

B3: UVR8^W285F (natural protein, Arabidopsis, UniProt Q9FN03 1-440, looked up)
chain: MAEDMAADEVTAPPRKVLIISAGASHSVALLSGDIVCSWGRGEDGQLGHGDAEDRPSPTQLSALDGHQIVSVTCGADHTVAYSQSGMEVYSWGWGDFGRLGHGNSSDLFTPLPIKALHGIRIKQIACGDSHCLAVTMEGEVQSWGRNQNGQLGLGDTEDSLVPQKIQAFEGIRIKMVAAGAEHTAAVTEDGDLYGWGWGRYGNLGLGDRTDRLVPERVTSTGGEKMSMVACGWRHTISVSYSGALYTYGWSKYGQLGHGDLEDHLIPHKLEALSNSFISQISGGFRHTMALTSDGKLYGWGWNKFGQVGVGNNLDQCSPVQVRFPDDQKVVQVSCGWRHTLAVTERNNVFAWGRGTNGQLGIGESVDRNFPKIIEALSVDGASGQHIESSNIDPSSGKSWVSPAERYAVVPDETGLTDGSSKGNGGDISVPQTDVKRVRI
Consider B3, for which the “stoichiometry N” value in “SEC” was determined as 2.

B4: UVR8^W233F, Q9FN03 1-440 (natural protein)
chain: MAEDMAADEVTAPPRKVLIISAGASHSVALLSGDIVCSWGRGEDGQLGHGDAEDRPSPTQLSALDGHQIVSVTCGADHTVAYSQSGMEVYSWGWGDFGRLGHGNSSDLFTPLPIKALHGIRIKQIACGDSHCLAVTMEGEVQSWGRNQNGQLGLGDTEDSLVPQKIQAFEGIRIKMVAAGAEHTAAVTEDGDLYGWGWGRYGNLGLGDRTDRLVPERVTSTGGEKMSMVACGFRHTISVSYSGALYTYGWSKYGQLGHGDLEDHLIPHKLEALSNSFISQISGGWRHTMALTSDGKLYGWGWNKFGQVGVGNNLDQCSPVQVRFPDDQKVVQVSCGWRHTLAVTERNNVFAWGRGTNGQLGIGESVDRNFPKIIEALSVDGASGQHIESSNIDPSSGKSWVSPAERYAVVPDETGLTDGSSKGNGGDISVPQTDVKRVRI
For B4, the stoichiometry N in [6] and in [7] was 2 throughout.

B5: trypsin-treated UVR8 (crystallographic construct) (domain or fragment, Arabidopsis)
chain: MAEDMAADEVTAPPRKVLIISAGASHSVALLSGDIVCSWGRGEDGQLGHGDAEDRPSPTQLSALDGHQIVSVTCGADHTVAYSQSGMEVYSWGWGDFGRLGHGNSSDLFTPLPIKALHGIRIKQIACGDSHCLAVTMEGEVQSWGRNQNGQLGLGDTEDSLVPQKIQAFEGIRIKMVAAGAEHTAAVTEDGDLYGWGWGRYGNLGLGDRTDRLVPERVTSTGGEKMSMVACGWRHTISVSYSGALYTYGWSKYGQLGHGDLEDHLIPHKLEALSNSFISQISGGWRHTMALTSDGKLYGWGWNKFGQVGVGNNLDQCSPVQVRFPDDQKVVQVSCGWRHTLAVTERNNVFAWGRGTNGQLGIGESVDRNFPKIIEALSVDGASGQHIESSNIDPSSGKSWVSPAE
For the molecule B5, the “stoichiometry N” value in “SAXS” turned out to be 2.
